Patent US20030195151A1

What was measured:
[1] = biological target: endoxylanase M1 from Trichoderma viride (family 11), Megazyme (Trichoderma viride); assay: cell-based or functional assay
[2] = biological target: endoxylanase M4 from Aspergillus niger (family 11), Megazyme (Aspergillus niger); assay: cell-based or functional assay
[3] = biological target: endoxylanase M6 from a rumen microorganism culture filtrate, Megazyme; assay: cell-based or functional assay
[4] = biological target: endoxylanase from Bacillus subtilis (family 11), NV Puratos (Bacillus subtilis) (UniProt P18429); assay: cell-based or functional assay
[5] = biological target: mixture of ‘TAXI’-like endoxylanase inhibitors obtained after the affinity purification step of example 3, immobilised on NHS-activated Sepharose 4 Fast Flow; assay: affinity chromatography on immobilised ‘TAXI’-like endoxylanase inhibitors, activity by Xylazyme-AX method

Chain of endoxylanase M4 from Aspergillus niger (family 11), Megazyme (Aspergillus niger) (P55329 28-211): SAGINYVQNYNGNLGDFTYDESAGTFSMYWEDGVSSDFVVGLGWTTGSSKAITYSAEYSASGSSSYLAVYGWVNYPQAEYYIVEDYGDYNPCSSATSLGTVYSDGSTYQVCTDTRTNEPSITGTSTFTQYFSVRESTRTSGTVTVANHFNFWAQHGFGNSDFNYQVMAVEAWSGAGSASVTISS
Chain of endoxylanase of A. niger, var. awamori (Quest International enzyme preparation) (P55328 28-211): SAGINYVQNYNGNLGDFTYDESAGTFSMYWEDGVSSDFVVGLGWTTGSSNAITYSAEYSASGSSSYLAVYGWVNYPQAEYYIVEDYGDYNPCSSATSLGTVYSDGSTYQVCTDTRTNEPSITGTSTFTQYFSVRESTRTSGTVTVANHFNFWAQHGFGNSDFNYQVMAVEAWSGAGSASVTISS

Substance	maximum of inhibition of endoxylanase activity (Xylazyme-AX method) [1]	maximum of inhibition of endoxylanase activity (Xylazyme-AX method) [3]	maximum of inhibition of endoxylanase activity (Xylazyme-AX method) [4]	endoxylanase inhibition activity of periplasmic protein fraction (Xylazyme-AX method) [2]	endoxylanase inhibition activity of periplasmic protein fraction (Xylazyme-AX method) [4]	also measured
TAXI II (Triticum aestivum L. endoxylanase inhibitor II)	> 90%	8%	77%	–	–	quantity of inhibitor that reduces the endoxylanase activity with 50% (Xylazyme-AX method) [1]: 0.07 µg; maximum of inhibition as a function of inhibitor quantity [4]: 80%; quantity of inhibitor that reduces the endoxylanase activity with 50% (Xylazyme-AX method) [4]: 0.28 µg
endoxylanase of A. niger, var. awamori (Quest International enzyme preparation)	–	–	–	–	–	endoxylanase activity retained on the affinity column [5]: 94%
recombinant TAXI protein expressed by the pHOS31-TAXI plasmid	–	–	–	96%	81%	–

More lines, main results first:

maximum of inhibition of endoxylanase activity (Xylazyme-AX method) [1]	maximum of inhibition of endoxylanase activity (Xylazyme-AX method) [3]	maximum of inhibition of endoxylanase activity (Xylazyme-AX method) [4]	endoxylanase inhibition activity of periplasmic protein fraction (Xylazyme-AX method) [2]	endoxylanase inhibition activity of periplasmic protein fraction (Xylazyme-AX method) [4]	Substance	also measured
> 95%	15%	92%	–	–	HvXI (Hordeum vulgare L. endoxylanase inhibitor)	level of inhibitor that reduces the endoxylanase activity with 50% (Xylazyme-AX method) [1]: 0.08 µg; level of inhibitor that reduces the endoxylanase activity with 50% (Xylazyme-AX method) [2]: 0.13 µg; maximum of inhibition of endoxylanase activity (Xylazyme-AX method) [2]: > 95%; level of inhibitor that reduces the endoxylanase activity with 50% (Xylazyme-AX method) [4]: 0.27 µg
–	–	–	99%	88%	MBP (maltose binding protein)-TAXI fusion protein expressed by the pMAL-p2X-TAXI plasmid	–
